Laboratory results published in patent US20160195541A1.

What was measured:
[1] = molecular target: membrane-bound human FcγRIIB on Raji cells (human) (UniProt P31994); test: FACS on Raji cells (FACS021), constant aggregated IgG; competitor SM101 IMP 0.0156 µg/µL
[2] = molecular target: membrane-bound human FcγRIIB on Raji cells (human) (UniProt P31994); test: FACS on Raji cells (FACS021), constant aggregated IgG; competitor SM101 IMP 0.25 µg/µL
[3] = molecular target: membrane-bound human FcγRIIB on Raji cells (human) (UniProt P31994); test: FACS: 0.1E6 Raji cells (FcγRIIB) with 2.5 µg aggregated Beriglobin at the stated pH; 1/200 anti-human IgG(H+L)-PE; drawn table, secondary antibody control not subtracted; pH 6.7
[4] = molecular target: membrane-bound human FcγRIIB on Raji cells (human) (UniProt P31994); test: FACS on Raji cells (FACS021), constant aggregated IgG; competitor SM101 IMP 0.5 µg/µL
[5] = molecular target: membrane-bound human FcγRIIB on Raji cells (human) (UniProt P31994); test: FACS: 0.1E6 Raji cells (FcγRIIB) with 2.5 µg aggregated Beriglobin at the stated pH; 1/200 anti-human IgG(H+L)-PE; secondary antibody alone in this panel 173; pH 6.5
[6] = molecular target: membrane-bound human FcγRIIB on Raji cells (human) (UniProt P31994); test: FACS: 0.1E6 Raji cells (FcγRIIB) with 2.5 µg aggregated Beriglobin at the stated pH; 1/200 anti-human IgG(H+L)-PE; secondary antibody alone in this panel 173; pH 7.2
[7] = molecular target: membrane-bound human FcγRIIB on Raji cells (human) (UniProt P31994); test: FACS on Raji cells (FACS021), constant aggregated IgG; no competitor (Ref. Std. series)
[8] = molecular target: membrane-bound human FcγRIIB on Raji cells (human) (UniProt P31994); test: FACS on Raji cells (FACS007), constant aggregated IgG; competitor SM101 0.5 µg/µL
[9] = molecular target: membrane-bound human FcγRIIB on Raji cells (human) (UniProt P31994); test: FACS: 0.1E6 Raji cells (FcγRIIB) with 2.5 µg aggregated Beriglobin at the stated pH; 1/200 anti-human IgG(H+L)-PE; drawn table, secondary antibody control not subtracted
[10] = molecular target: membrane-bound human FcγRIIB on Raji cells (human) (UniProt P31994); test: FACS on Raji cells (FcγRIIB) with constant aggregated Beriglobin and no CSA; detected with anti-human IgG(H+L)-PE; secondary antibody alone (SM101_sek AK.fcs) has median 137
[11] = molecular target: membrane-bound human FcγRIIB on Raji cells (human) (UniProt P31994); test: FACS on Raji cells (FACS007), constant aggregated IgG, anti-human IgG-PE; no competitor
[12] = molecular target: membrane-bound human FcγRIIB on Raji cells (human) (UniProt P31994); test: FACS on viable Raji cells (FcγRIIB) with aggregated Beriglobin and no SM101; detected with anti-human IgG(H+L)-PE secondary antibody
[13] = molecular target: membrane-bound human FcγRIIB on Raji cells (human) (UniProt P31994); test: FACS on Raji cells (FACS021), constant aggregated IgG; competitor SM101 IMP 0.0078 µg/µL
[14] = molecular target: membrane-bound human FcγRIIB on Raji cells (human) (UniProt P31994); test: FACS on Raji cells (FACS021), constant aggregated IgG; competitor SM101 Ref. Std. 0.03125 µg/µL
[15] = molecular target: membrane-bound human FcγRIIB on Raji cells (human) (UniProt P31994); test: FACS on Raji cells, aggregated Beriglobin at 2.5 (µg/µL); mean of three batches
[16] = molecular target: membrane-bound human FcγRIIB on Raji cells (human) (UniProt P31994); test: FACS on Raji cells (FACS021), constant aggregated IgG; competitor SM101 Ref. Std. 0.25 µg/µL
[17] = molecular target: membrane-bound human FcγRIIB on Raji cells (human) (UniProt P31994); test: FACS on Raji cells (FACS021), constant aggregated IgG; competitor SM101 IMP 0.125 µg/µL
[18] = molecular target: membrane-bound human FcγRIIB on Raji cells (human) (UniProt P31994); test: FACS on Raji cells (FACS007), constant aggregated IgG; competitor SM101 0.0625 µg/µL
[19] = molecular target: membrane-bound human FcγRIIB on Raji cells (human) (UniProt P31994); test: FACS: 0.1E6 Raji cells (FcγRIIB) with 2.5 µg aggregated Beriglobin at the stated pH; 1/200 anti-human IgG(H+L)-PE; secondary antibody alone in this panel 173; pH 6.7
[20] = molecular target: membrane-bound human FcγRIIB on Raji cells (human) (UniProt P31994); test: FACS on Raji cells (FACS007), constant aggregated IgG; competitor SM101 0.125 µg/µL
[21] = molecular target: membrane-bound human FcγRIIB on Raji cells (human) (UniProt P31994); test: FACS on Raji cells (FACS021), constant aggregated IgG; competitor SM101 IMP 0.03125 µg/µL
[22] = molecular target: membrane-bound human FcγRIIB on Raji cells (human) (UniProt P31994); test: FACS: 0.1E6 Raji cells (FcγRIIB) with 2.5 µg aggregated Beriglobin at the stated pH; 1/200 anti-human IgG(H+L)-PE; secondary antibody alone in this panel 142
[23] = molecular target: membrane-bound human FcγRIIB on Raji cells (human) (UniProt P31994); test: FACS on Raji cells (FACS021), constant aggregated IgG; competitor SM101 Ref. Std. 0.5 µg/µL
[24] = molecular target: membrane-bound human FcγRIIB on Raji cells (human) (UniProt P31994); test: FACS on Raji cells (FACS007), constant aggregated IgG; competitor SM101 0.03125 µg/µL

Chain of UniProt P31994 (P31994 43-310): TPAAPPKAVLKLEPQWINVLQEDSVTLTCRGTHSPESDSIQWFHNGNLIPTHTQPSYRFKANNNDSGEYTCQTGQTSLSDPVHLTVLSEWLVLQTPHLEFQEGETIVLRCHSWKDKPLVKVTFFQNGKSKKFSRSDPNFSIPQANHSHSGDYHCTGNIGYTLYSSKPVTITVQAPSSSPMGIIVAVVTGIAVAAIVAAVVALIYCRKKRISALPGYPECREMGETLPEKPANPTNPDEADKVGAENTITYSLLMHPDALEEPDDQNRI

Median Signal [1]: 3810 | Median Signal [2]: 281 | Median MFI at pH 6.7 [3]: 578 | Median Signal [4]: 195 | Median MFI at pH 6.5 (left panel) [5]: 703 | Median MFI at pH 7.2 (left panel) [6]: 561 | Median Signal [7]: 6460 | Median Signal [8]: 238 | Median MFI at pH 7 [9]: 599 | Median MFI at pH 7.8 [9]: 363 | Median MFI at pH 8 [9]: 348 | Median MFI at pH 8.5 [9]: 246 | Median MFI at pH 9 [9]: 244 | Median MFI at pH 10 [9]: 177 | Median PE-A fluorescence, 0 µg/µL CSA [10]: 3480 | Median Signal [11]: 3880 | Median Signal [13]: 5310 | Median Signal [14]: 1640 | Median MFI (mean) [15]: 1280 | Median Signal [16]: 269 | Median Signal [17]: 478 | Median Signal [18]: 466 | Median MFI at pH 6.7 (left panel) [19]: 578 | Median Signal [20]: 329 | Median Signal [21]: 1780 | Median MFI at pH 7.0 (right panel) [22]: 866 | Median MFI at pH 8.0 (right panel) [22]: 316 | Median MFI at pH 8.5 (right panel) [22]: 246 | Median MFI at pH 9.0 (right panel) [22]: 244 | Median MFI at pH 10 (right panel) [22]: 177 | Median Signal [23]: 182 | Median Signal [24]: 1240
Substance: aggregated human IgG (aggregated Beriglobin, aggregated fraction isolated by size exclusion chromatography) (antibody)
percent of gated viable cells in the upper right quadrant of the dot plot (PE-A above about 10^3) [12]: 84.7
